Measured values taken from PMC7906288.
Where two headings read alike, the source gives them in different places.

Legend:
Assay in all cases: native MS
[1] = target: SILu Lite SigmaMAb universal antibody standard human (MSQC4) (human)
[2] = target: SILu Lite SigmaMAb universal antibody standard human (MSQC4) (human); remark: listed apart in the source
[3] = target: SILu Lite SigmaMAb universal antibody standard human (MSQC4) (human); remark: listed apart in the source
[4] = target: NISTmAb, recombinant humanized monoclonal IgG1 antibody (not stated | human (humanized antibody))

Row | Substance | stoichiometry N [1] | stoichiometry N [2] | stoichiometry N [3] | stoichiometry N [4]
1 | SILu Lite SigmaMAb universal antibody standard human (MSQC4) | 2 | 2 | 2 | –
2 | NISTmAb, recombinant humanized monoclonal IgG1 antibody | – | – | – | 2
